Consider 4 molecules from patent publication US20260209362A1 (VIB VZW, published 2026).

Assay [1] concerns the target T1, biotinylated recombinant mouse IL-12Rβ2 (produced in-house) (mouse, UniProt P97378 24-637, random biotinylated).
T1 construct: also called mIL-12RB2; mIL12RB2
T1 sequence: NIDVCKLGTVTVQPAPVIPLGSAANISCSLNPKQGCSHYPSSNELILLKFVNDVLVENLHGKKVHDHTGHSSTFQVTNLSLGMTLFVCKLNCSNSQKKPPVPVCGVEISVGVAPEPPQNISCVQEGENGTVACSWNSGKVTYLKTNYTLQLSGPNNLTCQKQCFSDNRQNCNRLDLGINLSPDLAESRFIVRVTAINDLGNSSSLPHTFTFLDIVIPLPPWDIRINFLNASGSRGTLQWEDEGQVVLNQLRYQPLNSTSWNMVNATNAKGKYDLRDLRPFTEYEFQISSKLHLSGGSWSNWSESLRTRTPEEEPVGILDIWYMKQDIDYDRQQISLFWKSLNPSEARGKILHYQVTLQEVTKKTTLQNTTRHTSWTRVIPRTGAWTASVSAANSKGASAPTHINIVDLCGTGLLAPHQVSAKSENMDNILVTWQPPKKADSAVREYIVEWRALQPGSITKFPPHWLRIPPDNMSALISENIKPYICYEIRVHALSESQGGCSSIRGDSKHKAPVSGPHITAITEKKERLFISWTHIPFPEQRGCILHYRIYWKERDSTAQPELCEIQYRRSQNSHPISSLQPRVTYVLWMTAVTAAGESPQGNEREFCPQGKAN
In words: BLI (Octet), P.E. VHH on immobilised biotinylated mIL-12RB2. In general terms: In BLI a coated tip is dipped into the sample, and binding shifts an interference pattern.

Assay [2] addresses T2, human IL-12Rβ2 expressed on cells (human, UniProt Q99665 24-862).
T2 construct: HEK293T cells transiently transfected with a human IL-12Rβ2 plasmid (Genscript OHu21785); also called hIL-12RB2
T2 sequence: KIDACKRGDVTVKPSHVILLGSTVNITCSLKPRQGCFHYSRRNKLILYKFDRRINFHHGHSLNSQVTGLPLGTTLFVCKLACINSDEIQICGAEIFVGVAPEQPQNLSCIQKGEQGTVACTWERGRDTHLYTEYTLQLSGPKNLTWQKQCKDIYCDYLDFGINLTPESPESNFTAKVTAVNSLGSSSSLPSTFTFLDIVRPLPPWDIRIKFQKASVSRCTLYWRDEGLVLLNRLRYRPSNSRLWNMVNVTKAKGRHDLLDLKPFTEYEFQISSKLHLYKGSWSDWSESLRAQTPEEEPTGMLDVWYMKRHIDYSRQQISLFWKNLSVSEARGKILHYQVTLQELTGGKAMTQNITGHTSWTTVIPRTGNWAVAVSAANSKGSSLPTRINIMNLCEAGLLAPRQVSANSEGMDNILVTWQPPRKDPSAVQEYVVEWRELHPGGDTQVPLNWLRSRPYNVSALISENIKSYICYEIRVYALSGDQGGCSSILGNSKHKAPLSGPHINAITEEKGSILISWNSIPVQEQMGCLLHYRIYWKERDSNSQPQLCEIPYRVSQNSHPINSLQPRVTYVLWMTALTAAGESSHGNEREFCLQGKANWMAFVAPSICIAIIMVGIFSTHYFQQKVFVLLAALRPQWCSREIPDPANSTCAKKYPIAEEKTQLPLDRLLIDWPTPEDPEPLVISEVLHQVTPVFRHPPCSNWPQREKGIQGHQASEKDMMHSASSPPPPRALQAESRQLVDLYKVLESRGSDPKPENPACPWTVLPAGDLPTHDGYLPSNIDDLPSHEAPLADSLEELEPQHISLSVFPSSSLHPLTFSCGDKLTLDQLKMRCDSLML
In words: flow cytometry, P.E. VHH on HEK293T cells transiently expressing hIL-12RB2. A general note: In flow cytometry, cells or beads pass a laser one at a time.

B1: anti-IL-12Rβ2 VHH clone 3CRHM99 (VHH, not shown: small tags and cut ends)
VHH: QVQLQESGGGLVQPGGSLRLSCAASGISSSRLHVGWFRQSPGKEREFVAAISLSGGTQAYTDSVKGRFTISGDNVKNTAYLQMNSLRPEDTAVYYCAARERFIWTWSDLTYDYWGQGTQVTVSS
notes: tested as periplasmic extract; also called 21062
Turning to B1, the Response in assay [1] was 0.812. Also, the dMFI in assay [2] was 458.

B2: anti-IL-12Rβ2 VHH clone 3CAHM11 (VHH, not shown: small tags and cut ends)
VHH: QVQLQESGGGLVQAGGSLRLSCAASGRTFNNYAMAWFRQAPGKEREFIAAITRSDTTLYIDSVKGRFTISRDNAKNTVALQMNSLKPEDTAVYYCAAGMPYSYSDYPRDSKYDYWGRGTQVTVSS
notes: tested as periplasmic extract
For B2, in assay [1], the Response turned out to be 1.03. The dMFI in assay [2] was 684.

B3: anti-IL-12Rβ2 VHH clone 3CRHM14 (VHH, not shown: small tags and cut ends)
VHH: QVQLQESGGGLVQAGGSLRLSCAASGRTFSNYAMAWFRQAPGTEREFVAGLSGSGGDTEFYDDSVKGRFAISRDSAKNTVWLQMNSLKPEDTAVYYCAAATHVVVHYGLVRRRGTYDYWGQGTQVTVSS
notes: tested as periplasmic extract
In the case of B3, in assay [1], the Response came out at 0.957. The molecule also returned a dMFI in assay [2] of 589.

B4: anti-IL-12Rβ2 VHH clone 3CRHM73 (VHH, not shown: small tags and cut ends)
VHH: QVQLQESGGGLVQAGGSLSLSCAASGSAFRLNFMGWYRQAPGKQRELVAAINSGGTEIYHDSVKGRFTISRDNADSTVWLQMNSLKPDDTAVYYCAADRGISWSKLAGGMDYWGKGTQVTVSS
notes: tested as periplasmic extract; also called 21060
Regarding B4, the Response in assay [1] is 0.944. The molecule further registered a dMFI in assay [2] of 297.
